Test results: patent US20210163584A1 (Sanofi, published 2021)
Where two headings read alike, the source gives them in different places.

How the values were obtained:
TGF-β1 [1] = molecular target: T1, TGF-β1 (UniProt P01137 279-390); test: SPR (Biacore); amine-coupled TGF-β1 on chip, antibody as analyte, kinetic fit
T1 construct: also called transforming growth factor-beta 1
Description: Recombinant mAb1-D10 fusion variants of Example 7 were also quantitatively assessed for TGF-β1 binding using surface plasmon resonance (SPR) as detected by Biacore. Samples containing purified variants were passed over a sensor chip with amine-coupled TGF-β1 to determine the equilibrium constant, KD. A target immobilization level of less than 100 response units (RU) of TGF-β1 was chosen to minimize the potential for avidity effects arising from binding adjacent TGF-β1 molecules on the chip. The level of immobilization was determined by the change in response units after NHS/EDC activation of the chip surface, but before quenching with ethanolamine. The fusion variants, WT fusion variant F1, and mAb1 control were diluted to 30, 10, 3, 1 and 0.37 nM in HBS-EP buffer and passed over the TGF-β1 chip at 30 μL/min for 3 min, followed by 5 min dissociation in the same buffer. Between runs, the chip surface was regenerated to remove any bound antibody by passing two 30 sec injections of 40 mM HCl over the chip at a flow rate of 75 μL/min. […] Unexpectedly, the maximum signal (RU) elicited by the fusion variants decreased with increasing number of peptides, with variant F17 (D10-HC-D10/D10-LC, PAR=6) showing the lowest signal. […] A possible explanation of this decline may reflect electrostatic repulsion between the chip matrix (carboxymethyl dextran) and the negatively charged D10 peptides.

TGF-β1 [2] = molecular target: T1, TGF-β1; test: cell-based or functional assay
TGF-β1 [3] = molecular target: T1, TGF-β1; test: cell-based or functional assay; remark: listed apart in the source

T1 sequence (P01137 279-390 limits assumed): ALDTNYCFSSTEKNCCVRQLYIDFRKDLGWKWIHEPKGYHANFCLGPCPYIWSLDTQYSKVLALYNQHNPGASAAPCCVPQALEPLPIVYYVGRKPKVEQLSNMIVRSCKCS

Row | Binder | Kd (TGF-β1 [1]) [nM] | koff (TGF-β1 [1]) [s⁻¹] | kon (TGF-β1 [1]) [M⁻¹ s⁻¹] | IC50 (read off the curve); IL-11 release by A549 cells in response to TGF-β1 (TGF-β1 [2]) [nM] | IC50 (read off the curve); IL-11 release by A549 cells in response to TGF-β1 (TGF-β1 [3]) [nM]
1 | mAb1 F7 (antibody, mouse IgG1, kappa, Mouse IgG1 fusion variant, PAR 4; also called HC-D10: D10-LC) heavy: HVQLQQSGPELVRPGASVKLSCKASGYIFITYWMNWVKQRPGQGLEWIGQIFPASGSTNYNEMFEGKATLTVDTSSSTAYMQLSSLTSEDSAVYYCARGDGNYALDAMDYWGQGTSVTVSSAKTTPPSVYPLAPGSAAQTNSMVTLGCLVKGYFPEPVTVTWNSGSLSSGVHTFPAVLQSDLYTLSSSVTVPSSTWPSQTVTCNVAHPASSTKVDKKIVPRDCGCKPCICTVPEVSSVFIFPPKPKDVLTITLTPKVTCVVVDISKDDPEVQFSWFVDDVEVHTAQTKPREEQFNSTFRSVSELPIMHQDWLNGKEFKCRVNSAAFPAPIEKTISKTKGRPKAPQVYTIPPPKEQMAKDKVSLTCMITDFFPEDITVEWQWNGQPAENYKNTQPIMDTDGSYFVYSKLNVQKSNWEAGNTFTCSVLHEGLHNHHTEKSLSHSPGKDDDDDDDDDD light: DDDDDDDDDDNIVLTQSPASLAVSLGQRATISCRASESVDSYGNSFMHWYQQKSGQPPKLLIYLASNLESGVPARFSGSGSRTDFTLTIDPVEADDAATYYCQQNNEDPLTFGAGTKLELKRADAAPTVSIFPPSSEQLTSGGASVVCFLNNFYPKDINVKWKIDGSERQNGVLNSWTDQDSKDSTYSMSSTLTLTKDEYERHNSYTCEATHKTSTSPIVKSFNRNEC | 5.43 | 0.00094 | 172000 | ~0.08 | 
2 | mAb1 F12 (antibody, mouse IgG1, kappa, Mouse IgG1 fusion variant, PAR 4; also called D10-HC: D10-LC) heavy: DDDDDDDDDDHVQLQQSGPELVRPGASVKLSCKASGYIFITYWMNWVKQRPGQGLEWIGQIFPASGSTNYNEMFEGKATLTVDTSSSTAYMQLSSLTSEDSAVYYCARGDGNYALDAMDYWGQGTSVTVSSAKTTPPSVYPLAPGSAAQTNSMVTLGCLVKGYFPEPVTVTWNSGSLSSGVHTFPAVLQSDLYTLSSSVTVPSSTWPSQTVTCNVAHPASSTKVDKKIVPRDCGCKPCICTVPEVSSVFIFPPKPKDVLTITLTPKVTCVVVDISKDDPEVQFSWFVDDVEVHTAQTKPREEQFNSTFRSVSELPIMHQDWLNGKEFKCRVNSAAFPAPIEKTISKTKGRPKAPQVYTIPPPKEQMAKDKVSLTCMITDFFPEDITVEWQWNGQPAENYKNTQPIMDTDGSYFVYSKLNVQKSNWEAGNTFTCSVLHEGLHNHHTEKSLSHSPGK light: DDDDDDDDDDNIVLTQSPASLAVSLGQRATISCRASESVDSYGNSFMHWYQQKSGQPPKLLIYLASNLESGVPARFSGSGSRTDFTLTIDPVEADDAATYYCQQNNEDPLTFGAGTKLELKRADAAPTVSIFPPSSEQLTSGGASVVCFLNNFYPKDINVKWKIDGSERQNGVLNSWTDQDSKDSTYSMSSTLTLTKDEYERHNSYTCEATHKTSTSPIVKSFNRNEC | 5.41 | 0.00093 | 171000 |  | ~0.03
3 | mAb1 F6 (antibody, mouse IgG1, kappa, Mouse IgG1 fusion variant, PAR 2; also called HC-D10: WT-LC; mAb1-D10) heavy: HVQLQQSGPELVRPGASVKLSCKASGYIFITYWMNWVKQRPGQGLEWIGQIFPASGSTNYNEMFEGKATLTVDTSSSTAYMQLSSLTSEDSAVYYCARGDGNYALDAMDYWGQGTSVTVSSAKTTPPSVYPLAPGSAAQTNSMVTLGCLVKGYFPEPVTVTWNSGSLSSGVHTFPAVLQSDLYTLSSSVTVPSSTWPSQTVTCNVAHPASSTKVDKKIVPRDCGCKPCICTVPEVSSVFIFPPKPKDVLTITLTPKVTCVVVDISKDDPEVQFSWFVDDVEVHTAQTKPREEQFNSTFRSVSELPIMHQDWLNGKEFKCRVNSAAFPAPIEKTISKTKGRPKAPQVYTIPPPKEQMAKDKVSLTCMITDFFPEDITVEWQWNGQPAENYKNTQPIMDTDGSYFVYSKLNVQKSNWEAGNTFTCSVLHEGLHNHHTEKSLSHSPGKDDDDDDDDDD light: NIVLTQSPASLAVSLGQRATISCRASESVDSYGNSFMHWYQQKSGQPPKLLIYLASNLESGVPARFSGSGSRTDFTLTIDPVEADDAATYYCQQNNEDPLTFGAGTKLELKRADAAPTVSIFPPSSEQLTSGGASVVCFLNNFYPKDINVKWKIDGSERQNGVLNSWTDQDSKDSTYSMSSTLTLTKDEYERHNSYTCEATHKTSTSPIVKSFNRNEC | 4.58 | 0.00084 | 182000 | ~0.2 | 
4 | mAb1 F16 (antibody, mouse IgG1, kappa, Mouse IgG1 fusion variant, PAR 4; also called D10-HC-D10: WT-LC) heavy: DDDDDDDDDDHVQLQQSGPELVRPGASVKLSCKASGYIFITYWMNWVKQRPGQGLEWIGQIFPASGSTNYNEMFEGKATLTVDTSSSTAYMQLSSLTSEDSAVYYCARGDGNYALDAMDYWGQGTSVTVSSAKTTPPSVYPLAPGSAAQTNSMVTLGCLVKGYFPEPVTVTWNSGSLSSGVHTFPAVLQSDLYTLSSSVTVPSSTWPSQTVTCNVAHPASSTKVDKKIVPRDCGCKPCICTVPEVSSVFIFPPKPKDVLTITLTPKVTCVVVDISKDDPEVQFSWFVDDVEVHTAQTKPREEQFNSTFRSVSELPIMHQDWLNGKEFKCRVNSAAFPAPIEKTISKTKGRPKAPQVYTIPPPKEQMAKDKVSLTCMITDFFPEDITVEWQWNGQPAENYKNTQPIMDTDGSYFVYSKLNVQKSNWEAGNTFTCSVLHEGLHNHHTEKSLSHSPGKDDDDDDDDDD light: NIVLTQSPASLAVSLGQRATISCRASESVDSYGNSFMHWYQQKSGQPPKLLIYLASNLESGVPARFSGSGSRTDFTLTIDPVEADDAATYYCQQNNEDPLTFGAGTKLELKRADAAPTVSIFPPSSEQLTSGGASVVCFLNNFYPKDINVKWKIDGSERQNGVLNSWTDQDSKDSTYSMSSTLTLTKDEYERHNSYTCEATHKTSTSPIVKSFNRNEC | 6.88 | 0.0011 | 159000 |  | ~0.02

More lines, in order of falling Kd (TGF-β1 [1]), values ahead:

Row | Kd (TGF-β1 [1]) [nM] | koff (TGF-β1 [1]) [s⁻¹] | kon (TGF-β1 [1]) [M⁻¹ s⁻¹] | IC50 (read off the curve); IL-11 release by A549 cells in response to TGF-β1 (TGF-β1 [2]) [nM] | IC50 (read off the curve); IL-11 release by A549 cells in response to TGF-β1 (TGF-β1 [3]) [nM] | Binder
5 | 6.01 | 0.001 | 166000 | ~0.2 |  | mAb1 F2 (antibody, mouse IgG1, kappa, Mouse IgG1 fusion variant, PAR 2; also called WT-HC: D10-LC) heavy: HVQLQQSGPELVRPGASVKLSCKASGYIFITYWMNWVKQRPGQGLEWIGQIFPASGSTNYNEMFEGKATLTVDTSSSTAYMQLSSLTSEDSAVYYCARGDGNYALDAMDYWGQGTSVTVSSAKTTPPSVYPLAPGSAAQTNSMVTLGCLVKGYFPEPVTVTWNSGSLSSGVHTFPAVLQSDLYTLSSSVTVPSSTWPSQTVTCNVAHPASSTKVDKKIVPRDCGCKPCICTVPEVSSVFIFPPKPKDVLTITLTPKVTCVVVDISKDDPEVQFSWFVDDVEVHTAQTKPREEQFNSTFRSVSELPIMHQDWLNGKEFKCRVNSAAFPAPIEKTISKTKGRPKAPQVYTIPPPKEQMAKDKVSLTCMITDFFPEDITVEWQWNGQPAENYKNTQPIMDTDGSYFVYSKLNVQKSNWEAGNTFTCSVLHEGLHNHHTEKSLSHSPGK light: DDDDDDDDDDNIVLTQSPASLAVSLGQRATISCRASESVDSYGNSFMHWYQQKSGQPPKLLIYLASNLESGVPARFSGSGSRTDFTLTIDPVEADDAATYYCQQNNEDPLTFGAGTKLELKRADAAPTVSIFPPSSEQLTSGGASVVCFLNNFYPKDINVKWKIDGSERQNGVLNSWTDQDSKDSTYSMSSTLTLTKDEYERHNSYTCEATHKTSTSPIVKSFNRNEC
6 | 5.62 | 0.00092 | 164000 |  | ~0.07 | mAb1 F11 (antibody, mouse IgG1, kappa, Mouse IgG1 fusion variant, PAR 2; also called D10-HC: WT-LC) heavy: DDDDDDDDDDHVQLQQSGPELVRPGASVKLSCKASGYIFITYWMNWVKQRPGQGLEWIGQIFPASGSTNYNEMFEGKATLTVDTSSSTAYMQLSSLTSEDSAVYYCARGDGNYALDAMDYWGQGTSVTVSSAKTTPPSVYPLAPGSAAQTNSMVTLGCLVKGYFPEPVTVTWNSGSLSSGVHTFPAVLQSDLYTLSSSVTVPSSTWPSQTVTCNVAHPASSTKVDKKIVPRDCGCKPCICTVPEVSSVFIFPPKPKDVLTITLTPKVTCVVVDISKDDPEVQFSWFVDDVEVHTAQTKPREEQFNSTFRSVSELPIMHQDWLNGKEFKCRVNSAAFPAPIEKTISKTKGRPKAPQVYTIPPPKEQMAKDKVSLTCMITDFFPEDITVEWQWNGQPAENYKNTQPIMDTDGSYFVYSKLNVQKSNWEAGNTFTCSVLHEGLHNHHTEKSLSHSPGK light: NIVLTQSPASLAVSLGQRATISCRASESVDSYGNSFMHWYQQKSGQPPKLLIYLASNLESGVPARFSGSGSRTDFTLTIDPVEADDAATYYCQQNNEDPLTFGAGTKLELKRADAAPTVSIFPPSSEQLTSGGASVVCFLNNFYPKDINVKWKIDGSERQNGVLNSWTDQDSKDSTYSMSSTLTLTKDEYERHNSYTCEATHKTSTSPIVKSFNRNEC
7 | 2.51 | 0.00085 | 338000 | ~0.2 |  | mAb1 F1 (antibody, mouse IgG1, kappa, Recombinant version of mAb1 without D10 peptide, mouse IgG1, PAR 0; also called Fusion 1; WT) heavy: HVQLQQSGPELVRPGASVKLSCKASGYIFITYWMNWVKQRPGQGLEWIGQIFPASGSTNYNEMFEGKATLTVDTSSSTAYMQLSSLTSEDSAVYYCARGDGNYALDAMDYWGQGTSVTVSSAKTTPPSVYPLAPGSAAQTNSMVTLGCLVKGYFPEPVTVTWNSGSLSSGVHTFPAVLQSDLYTLSSSVTVPSSTWPSQTVTCNVAHPASSTKVDKKIVPRDCGCKPCICTVPEVSSVFIFPPKPKDVLTITLTPKVTCVVVDISKDDPEVQFSWFVDDVEVHTAQTKPREEQFNSTFRSVSELPIMHQDWLNGKEFKCRVNSAAFPAPIEKTISKTKGRPKAPQVYTIPPPKEQMAKDKVSLTCMITDFFPEDITVEWQWNGQPAENYKNTQPIMDTDGSYFVYSKLNVQKSNWEAGNTFTCSVLHEGLHNHHTEKSLSHSPGK light: NIVLTQSPASLAVSLGQRATISCRASESVDSYGNSFMHWYQQKSGQPPKLLIYLASNLESGVPARFSGSGSRTDFTLTIDPVEADDAATYYCQQNNEDPLTFGAGTKLELKRADAAPTVSIFPPSSEQLTSGGASVVCFLNNFYPKDINVKWKIDGSERQNGVLNSWTDQDSKDSTYSMSSTLTLTKDEYERHNSYTCEATHKTSTSPIVKSFNRNEC
